Publication PMC5509671
Each block holds one substance with its values, some of them ahead of it.

Tests used:
[1] = target: full length human Bcl-xL S4C, C151A, labelled (human) (UniProt Q07817); test: fluorescence cross-correlation spectroscopy (FCCS) in solution; both partners free in solution, one with a green and one with a red dye; 150 mM NaCl, 20 mM Tris, pH 7.5; incubated at least 30 min (1 h for the cBidG titration); protein concentrations up to 200 nM; CC above 2.8% indicates interaction
[2] = target: full length human Bax S4C, C62S, C126S, labelled (human) (UniProt Q07812); test: scanning FCCS in giant unilamellar vesicles; membrane-embedded proteins in GUVs (30% CL or MOM mix), 22 °C; membrane insertion with cBid (labelled cBid as partner, or unlabeled cBid as activator; for Bax with Bcl-xL: cBid, Bax and GUVs incubated 30 min before Bcl-xL was added); mean CC above 20% indicates interaction
[3] = target: full length human Bcl-xL S4C, C151A, labelled (human) (UniProt Q07817); test: as above
[4] = target: full length human Bcl-xL S4C, C151A, labelled (human) (UniProt Q07817); test: FCCS kinetics in solution fitted with an ODE model; Bcl-xLR and Bcl-xLG mixed and incubated 2 h at RT, then 400 nM unlabeled cBid (~10-fold excess) or buffer added at t = 0; CC followed over time; rate constants from the ODE model of scenario 2 with likelihood profiles (95% confidence)

UniProt Q07817, sequence (Q07817 whole entry S4C/C151A): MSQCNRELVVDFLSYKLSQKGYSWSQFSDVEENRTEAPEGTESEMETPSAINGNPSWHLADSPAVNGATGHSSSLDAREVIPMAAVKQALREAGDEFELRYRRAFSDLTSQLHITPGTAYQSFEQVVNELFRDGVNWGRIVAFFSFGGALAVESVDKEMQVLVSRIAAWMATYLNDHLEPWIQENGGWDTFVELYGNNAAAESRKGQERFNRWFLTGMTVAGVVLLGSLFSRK
UniProt Q07812, sequence (Q07812 whole entry S4C/C62S/C126S): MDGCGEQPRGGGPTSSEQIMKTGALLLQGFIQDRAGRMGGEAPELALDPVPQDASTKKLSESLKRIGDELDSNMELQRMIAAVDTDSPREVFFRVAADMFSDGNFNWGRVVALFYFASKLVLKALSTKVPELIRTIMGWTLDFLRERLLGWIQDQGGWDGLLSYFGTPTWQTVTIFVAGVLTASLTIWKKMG

- %CC [1]: < 40 % CC
- %CC [2]: < 40 % CC
- %CC [3]: > 60 % CC
Substance: cBid (caspase 8-cleaved full length mouse Bid) labelled at the C-terminal fragment (complex)

- k+3 (cBid with a Bcl-xL homo-dimer, giving a cBid/Bcl-xL hetero-dimer and a Bcl-xL monomer) [4]: 10 to 700 M⁻¹ s⁻¹
Substance: cBid (caspase 8-cleaved full length mouse Bid), unlabeled (complex)

- %CC (highest, in single GUVs) [2]: < 100 % CC
Substance: full length human Bax S4C, C62S, C126S, labelled (from UniProt Q07812 1-192) (natural protein)
